Source: doi:10.1101/784462, “Rv3722c governs aspartate-dependent nitrogen metabolism in Mycobacterium tuberculosis” (bioRxiv, 2019)

Target: the molecule itself
Assay: crystal structure; Rv3722c (~40 mg/mL) co-crystallised with 5 mM L-glutamic acid (PDB 6U78) or 10 mM L-kynurenine (PDB 6U7A), sitting drop vapor diffusion at 17 °C

B1: Rv3722c (aspartate aminotransferase of Mycobacterium tuberculosis) (enzyme)
chain: SFDSLSPQELAALHARHQQDYAALQGMKLALDLTRGKPSAEQLDLSNQLLSLPGDDYRDPEGTDTRNYGGQHGLPGLRAIFAELLGIAVPNLIAGNNSSLELMHDIVAFSMLYGGVDSPRPWIQEQDGIKFLCPVPGYDRHFAITETMGIEMIPIPMLQDGPDVDLIEELVAVDPAIKGMWTVPVFGNPSGVTYSWETVRRLVQMRTAAPDFRLFWDNAYAVHTLTLDFPRQVDVLGLAAKAGNPNRPYVFASTSKITFAGGGVSFFGGSLGNIAWYLQYAGKKSIGPDKVNQLRHLRFFGDADGVRLHMLRHQQILAPKFALVAEVLDQRLSESKIASWTEPKGGYFISLDVLPGTARRTVALAKDVGIAVTEAGASFPYRKDPDDKNIRIAPSFPSVPDLRNAVDGLATCALLAATETLLNQGLASSAPNVR
notes: also called AspAT; not shown: His6, C-terminal, cleaved
  binding result: binds
